Holding throughout (format): cell-based
For assay [1], the target named is T1, rat GLP-1 receptor (rGLP-1r) (Rattus norvegicus, UniProt P32301).
T1 construct: expressed in transfected cells; host or cells: HEK293s or CHO cells
T1 sequence (P32301 22-463): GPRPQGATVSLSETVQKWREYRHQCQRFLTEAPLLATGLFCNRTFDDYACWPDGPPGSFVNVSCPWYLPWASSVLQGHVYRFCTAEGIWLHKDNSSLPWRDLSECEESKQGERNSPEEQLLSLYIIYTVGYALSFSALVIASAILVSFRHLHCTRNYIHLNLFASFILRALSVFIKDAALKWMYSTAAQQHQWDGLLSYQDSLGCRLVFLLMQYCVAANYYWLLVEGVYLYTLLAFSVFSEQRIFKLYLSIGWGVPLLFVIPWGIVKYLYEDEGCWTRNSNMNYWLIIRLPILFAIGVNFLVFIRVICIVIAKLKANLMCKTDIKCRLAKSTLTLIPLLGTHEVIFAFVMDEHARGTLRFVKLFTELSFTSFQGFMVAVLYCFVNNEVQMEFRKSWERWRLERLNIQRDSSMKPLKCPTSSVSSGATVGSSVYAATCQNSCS
Nature of the assay: BSA-cAMP assay, cells expressing rat GLP-1 receptor. The following applies: BSA-cAMP assay. The method, then: (§1) One basic cAMP assays was performed, differing in the medium used for the assay, the “BSA-cAMP assay”:
(§2) BSA-based assay medium: 0.1% bovine serum albumin (BSA) in
(§3) In certain aspects, the assay can also be carried out in medium supplemented with serum albumin that corresponds to the receptor being tested, e.g., human serum albumin for testing cAMP activity at hGIPr or hGLP-1r, rat serum albumin for testing cAMP activity at rGIPr or rGLP-1r, and so on. […] All sample dilutions were made in duplicate.
(§4) A frozen cryo-vial of cells expressing the receptor of interest was thawed rapidly in a water-bath, transferred to pre-warmed assay media and spun at 240×g for 5 minutes. Cells were re-suspended in assay buffer at an optimized concentration (e.g., hGLP-1r and hGIPr cells at 0.5×10^5 cells/ml).
(§5) To this, 5 μL cell suspension was added and the plates incubated at room temperature for 30 minutes.
(§6) cAMP levels were measured using a commercially available cAMP dynamic 2 HTRF kit (Cisbio, Cat #62AM4PEJ), following the two step protocol as per manufacturer's recommendations. In brief; anti-cAMP cryptate (donor fluorophore) and cAMP-d2 (acceptor fluorophore) were made up separately by diluting each 1/20 in conjugate & lysis buffer provided in the kit. 5 μL anti-cAMP cryptate was added to all wells of the assay plate, and 5 μL cAMP-d2 added to all wells except non-specific binding (NSB) wells, to which conjugate and lysis buffer was added. […] Data was transformed to % Delta F as described in manufacturer's guidelines and then transformed to percent activation of maximal native agonist response and analysed by 4-parameter logistic fit to determine EC50 values.
(§7) We used unconstrained 4 parameter logistic fit of data, curve mid-point to determine EC50. This was tested on two occasions, not two batches.
(§8) In order to be able to carry out in vivo studies in rodents, IP088 was tested for potency against the mouse receptors mGIPr and mGLP-1r as well as the rat receptors rGIPr and rGLP-1r, using cells expressing the respective receptors in the cAMP assay described above.

In assay [2] the target is T2, human glucagon receptor (GCGr) (Homo sapiens, UniProt P47871).
T2 construct: expressed in transfected cells; host or cells: HEK293s or CHO cells
Nature of the assay: BSA-cAMP assay, cells expressing human glucagon receptor. The following applies: Batch 1, read-out: hGCGr cAMP activity EC50. The method, then:
as §1, §2, §3, §4, §5, §6, §7

Assay [3] deals with T3, mouse GIP receptor (mGIPr) (Mus musculus, UniProt Q0P543).
T3 construct: expressed in transfected cells; host or cells: HEK293s or CHO cells
T3 sequence (Q0P543 19-460): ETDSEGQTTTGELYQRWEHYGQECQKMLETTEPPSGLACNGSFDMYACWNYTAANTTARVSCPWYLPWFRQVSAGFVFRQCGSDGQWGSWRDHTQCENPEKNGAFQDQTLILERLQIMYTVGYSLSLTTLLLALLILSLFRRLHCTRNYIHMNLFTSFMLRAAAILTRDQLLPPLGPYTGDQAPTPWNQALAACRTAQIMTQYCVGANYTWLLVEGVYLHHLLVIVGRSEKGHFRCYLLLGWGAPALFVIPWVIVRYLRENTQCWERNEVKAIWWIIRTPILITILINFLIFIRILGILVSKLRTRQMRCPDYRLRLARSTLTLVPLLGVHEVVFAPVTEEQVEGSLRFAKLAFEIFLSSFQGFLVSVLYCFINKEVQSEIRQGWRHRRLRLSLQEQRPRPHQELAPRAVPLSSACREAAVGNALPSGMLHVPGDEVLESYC
Nature of the assay: BSA-cAMP assay, cells expressing mouse GIP receptor. The settings on record: BSA-cAMP assay. The protocol:
as §1, §2, §3, §4, §5, §6, §7, §8

The target in assay [4] is T4, human GIP receptor (hGIPr) (Homo sapiens, UniProt P48546).
T4 construct: expressed in transfected cells
T4 sequence (P48546 22-466): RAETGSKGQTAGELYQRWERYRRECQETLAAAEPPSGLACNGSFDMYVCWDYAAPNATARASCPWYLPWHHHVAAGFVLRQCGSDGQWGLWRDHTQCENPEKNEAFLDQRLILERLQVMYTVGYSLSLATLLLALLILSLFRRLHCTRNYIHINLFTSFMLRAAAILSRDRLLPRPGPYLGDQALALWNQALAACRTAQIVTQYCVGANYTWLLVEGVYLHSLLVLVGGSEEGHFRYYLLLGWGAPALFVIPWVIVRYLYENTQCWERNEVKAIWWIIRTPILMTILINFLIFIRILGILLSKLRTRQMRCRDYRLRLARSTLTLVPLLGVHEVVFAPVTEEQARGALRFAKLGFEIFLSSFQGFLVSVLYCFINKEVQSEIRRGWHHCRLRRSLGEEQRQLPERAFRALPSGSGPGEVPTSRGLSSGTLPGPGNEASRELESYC
Kind of assay: BSA-cAMP assay, cells expressing human GIP receptor. The settings on record: BSA-cAMP assay. The method, then: For human GIPr, two different lines were used, shown as “hGIPr” and “hGIPr (C3)” in Table 11.
as §1, §2, §3, §4, §5, §6, §7

The target in assay [5] is T5, mouse GLP-1 receptor (mGLP-1r) (Mus musculus, UniProt O35659).
T5 construct: expressed in transfected cells; host or cells: HEK293s or CHO cells
T5 sequence (O35659 22-463): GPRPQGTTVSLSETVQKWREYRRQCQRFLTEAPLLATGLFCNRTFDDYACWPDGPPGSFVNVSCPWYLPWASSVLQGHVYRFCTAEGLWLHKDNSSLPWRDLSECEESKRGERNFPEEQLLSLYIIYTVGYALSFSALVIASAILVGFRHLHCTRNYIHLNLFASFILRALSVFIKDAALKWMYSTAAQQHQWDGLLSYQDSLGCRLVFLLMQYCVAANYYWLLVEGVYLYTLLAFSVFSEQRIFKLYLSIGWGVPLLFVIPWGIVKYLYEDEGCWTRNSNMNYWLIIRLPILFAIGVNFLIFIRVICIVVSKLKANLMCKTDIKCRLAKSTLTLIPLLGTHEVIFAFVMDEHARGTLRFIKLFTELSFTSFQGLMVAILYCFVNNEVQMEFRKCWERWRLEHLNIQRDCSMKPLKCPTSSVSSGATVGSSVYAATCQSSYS
Nature of the assay: BSA-cAMP assay, cells expressing mouse GLP-1 receptor. The settings on record: BSA-cAMP assay. The protocol: as §1, §2, §3, §4, §5, §6, §7, §8
(In general: Changes in cAMP serve as a functional read-out for many G protein-coupled receptors.)

Assay [6] deals with T6, rat GIP receptor (rGIPr) (Rattus norvegicus, UniProt P43219).
T6 construct: expressed in transfected cells; host or cells: HEK293s or CHO cells
T6 sequence (P43219 19-455): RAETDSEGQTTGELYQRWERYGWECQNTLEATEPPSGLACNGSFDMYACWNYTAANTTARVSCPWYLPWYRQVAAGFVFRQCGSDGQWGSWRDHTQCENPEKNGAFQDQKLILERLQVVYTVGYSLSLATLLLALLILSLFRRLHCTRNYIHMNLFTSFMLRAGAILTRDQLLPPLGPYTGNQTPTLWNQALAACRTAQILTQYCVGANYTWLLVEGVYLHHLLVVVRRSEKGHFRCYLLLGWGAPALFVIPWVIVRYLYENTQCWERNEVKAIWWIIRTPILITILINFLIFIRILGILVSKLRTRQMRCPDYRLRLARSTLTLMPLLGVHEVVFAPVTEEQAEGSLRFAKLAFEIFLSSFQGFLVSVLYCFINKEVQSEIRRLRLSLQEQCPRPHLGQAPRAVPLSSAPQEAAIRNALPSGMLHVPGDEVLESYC
Kind of assay: BSA-cAMP assay, cells expressing rat GIP receptor. The settings on record: BSA-cAMP assay. The protocol: as §1, §2, §3, §4, §5, §6, §7, §8

For assay [7], the target named is T7, human GLP-1 receptor (hGLP-1r) (Homo sapiens, UniProt P43220).
T7 construct: expressed in transfected cells
Nature of the assay: BSA-cAMP assay, cells expressing human GLP-1 receptor. The settings on record: BSA-cAMP assay. The method, then: as §1, §2, §3, §4, §5, §6, §7

Setting [8] is: Batch 1, read-out: rGLP1r cAMP activity EC50.
[9] abbreviates: Batch 1, read-out: mGIPr cAMP activity EC50.
The mark [10] stands for this setting: Batch 1, read-out: hGIPr cAMP activity EC50.
Setting [11] is: Batch 1, read-out: mGLP1r cAMP activity EC50.
[12] abbreviates: Batch 1, read-out: rGIPr cAMP activity EC50.
The mark [13] stands for this setting: Batch 1, read-out: hGLP1r cAMP activity EC50.

By EC50 is commonly meant the concentration giving half of the maximal effect.

Read-outs that look alike come from different tables or passages of the source.

T7 sequence (P43220 24-463): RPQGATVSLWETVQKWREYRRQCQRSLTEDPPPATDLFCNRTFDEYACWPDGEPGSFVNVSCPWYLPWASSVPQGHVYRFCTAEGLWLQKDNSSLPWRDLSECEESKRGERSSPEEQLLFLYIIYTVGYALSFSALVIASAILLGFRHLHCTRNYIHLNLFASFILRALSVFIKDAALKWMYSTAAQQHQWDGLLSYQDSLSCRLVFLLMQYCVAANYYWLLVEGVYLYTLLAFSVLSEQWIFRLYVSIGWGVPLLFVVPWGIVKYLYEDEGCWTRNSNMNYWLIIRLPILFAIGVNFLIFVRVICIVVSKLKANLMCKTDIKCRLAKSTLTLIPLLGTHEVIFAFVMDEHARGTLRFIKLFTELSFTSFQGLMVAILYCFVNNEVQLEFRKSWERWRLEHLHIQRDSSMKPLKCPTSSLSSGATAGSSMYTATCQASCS
T2 sequence (P47871 26-477): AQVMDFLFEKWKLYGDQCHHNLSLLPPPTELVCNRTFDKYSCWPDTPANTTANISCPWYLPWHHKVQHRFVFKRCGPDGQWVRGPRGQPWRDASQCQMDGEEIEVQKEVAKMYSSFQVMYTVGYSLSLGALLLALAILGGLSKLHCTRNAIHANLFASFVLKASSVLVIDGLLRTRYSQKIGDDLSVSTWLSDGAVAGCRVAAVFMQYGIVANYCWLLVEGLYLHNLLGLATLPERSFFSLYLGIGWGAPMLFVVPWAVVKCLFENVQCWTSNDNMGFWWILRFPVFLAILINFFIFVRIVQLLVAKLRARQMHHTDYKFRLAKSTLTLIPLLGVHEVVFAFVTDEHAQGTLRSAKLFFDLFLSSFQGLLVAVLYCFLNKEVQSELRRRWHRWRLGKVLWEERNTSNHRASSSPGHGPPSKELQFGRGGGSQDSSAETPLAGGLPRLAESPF

B1: IP301 (protein)
chain: YSEGTFTSDVSSYLEREAIDEFIAWLLKGGAAAGGSGSTASSGSGSATGGGGAATHTCPPC
In the case of B1, the EC50 in assay [1] (setting [8]) was found to be 0.058 nM; in assay [2], 12000 nM; in assay [3] (setting [9]) it was 22 nM; in assay [4] (setting [10]), 0.12 nM; in assay [5] (setting [11]) it was 1.9 nM; in assay [6] (setting [12]) it was 4.7 nM. The EC50 in assay [7] (setting [13]) came to 0.31 nM.

B2: IP378 (protein)
chain: YSEGTFTSLYRILLERQAIDEFIAWLLKGGAAAGGSGSTASSGSGSATGGGGAATHTCPPC
On to B2, for which the EC50 in assay [2] is over 2250 nM; in assay [3] (setting [9]) it was 3.1 nM; in assay [5] (setting [11]), 100 nM; in assay [6] (setting [12]), 0.4 nM; in assay [7] (setting [13]), 17 nM.

B3: IP306 (protein)
chain: YSEGTFTSDYSKLLERQAIDEFIAWLLKGGAAAGGSGSTASSGSGSATGGGGAATHTCPPC
Regarding B3, the concentration giving a half-maximal response (EC50) in assay [1] (setting [8]) worked out at 0.015 nM; in assay [2] it was 220 nM; in assay [3] (setting [9]), 0.25 nM; in assay [4] (setting [10]), 0.011 nM; in assay [5] (setting [11]) it was 0.25 nM; in assay [6] (setting [12]), 0.026 nM. Also, the EC50 in assay [7] (setting [13]) came to 0.1 nM.

B4: IP307 (protein)
chain: YSEGTFTSDVSSYMERQAIDEFIAWLLKQGAAAGGSGSTASSGSGSATGGGGAATHTCPPC
On to B4, for which the EC50 worked out at 0.21 nM in assay [1] (setting [8]); 4100 nM in assay [2]; 31 nM in assay [3] (setting [9]); 0.091 nM in assay [4] (setting [10]); 6.5 nM in assay [5] (setting [11]); 5.2 nM in assay [6] (setting [12]). Also, the EC50 in assay [7] (setting [13]) came out at 1.6 nM.

B5: IP309 (protein)
chain: YSEGTFISDVSSYLERQAIDEFIAWLLKGGAAAGGSGSTASSGSGSATGGGGAATHTCPPC
For B5, the concentration for a half-maximal effect (EC50) stood at 1.7 nM in assay [1] (setting [8]); 900 nM in assay [2]; 15 nM in assay [3] (setting [9]); 0.086 nM in assay [4] (setting [10]); 16 nM in assay [5] (setting [11]); 1.3 nM in assay [6] (setting [12]). Besides, in assay [7] (setting [13]), the concentration for a half-maximal effect (EC50) was 7.7 nM.

B6: IP310 (protein)
chain: YSEGTFTSDVSSYMERQAIDEFIAWLLKGKAAAGGSGSTASSGSGSATGGGGAATHTCPPC
Take B6: the half-maximal effective concentration (EC50) came to 0.038 nM in assay [1] (setting [8]); 3700 nM in assay [2]; 31 nM in assay [3] (setting [9]); 0.15 nM in assay [4] (setting [10]); 1.4 nM in assay [5] (setting [11]); 5.2 nM in assay [6] (setting [12]). Also, the EC50 in assay [7] (setting [13]) worked out at 0.35 nM.

B7: IP394 (protein)
chain: YSEGMHTSDLSKLLERQAIDEFIAWLLKGGAAAGGSGSTASSGSGSATGGGGAATHTCPPC
As to B7, the EC50 is 0.23 nM in assay [1] (setting [8]); over 17600 nM in assay [2]; 10 nM in assay [3] (setting [9]); 0.0095 nM in assay [4] (setting [10]); 10 nM in assay [5] (setting [11]); 0.06 nM in assay [6] (setting [12]).

B8: IP250 (protein)
chain: YSEGTFTSDVSIAMDRQAIDEFIAWLLKGGAAAGGSGSTASSGSGSATGGGGAATHTCPPCPAPEF
modifications: /note=“Description of Artificial Sequence Synthetic Peptide-linker-hinge polypeptide”
Consider B8, for which the EC50 was 2.2 nM in assay [1] (read-out: cAMP activity rGLP1r (EC50)); 35 nM in assay [3] (read-out: cAMP activity mGIPr (EC50)); 0.11 nM in assay [4] (batch 1 unless a batch is given, read-out: cAMP activity hGIPr (EC50)); 22 nM in assay [5] (read-out: cAMP activity mGLP1r (EC50)); 5.3 nM in assay [6] (read-out: cAMP activity rGIPr (EC50)); 1.1 nM in assay [7] (batch 1 unless a batch is given, read-out: cAMP activity hGLP1r (EC50)).
